From PMC6588637, “Immunization with merozoite surface protein 2 fused to a Plasmodium-specific carrier protein elicits strain-specific and strain-transcending, opsonizing antibody” (Scientific Reports, 2019)

Molecular target: the molecule itself
Assay: Thioflavin T fluorescence assay of amyloid-like fibril formation; 10 μM recombinant protein in PBS without sarkosyl, 30 μM ThT, 37 °C for up to 98 hours; in parallel with 40 μM EGCG, an inhibitor of fibril formation

B1: unfused recombinant Plasmodium falciparum merozoite surface protein 2 (3D7 allele) (domain or fragment)
chain: KNESKYSNTFINNAYNMSIRRSMAESKPSTGAGGSAGGSAGGSAGGSAGGSAGGSAGSGDGNGADAEGSSSTPATTTTTKTTTTTTTTNDAEASTSTSSENPNHKNAETNPKGKGEVQEPNQANKETQNNSNVQQDSQTKSNVPPTQDADTKSPTAQPEQAENSAPTAEQTESPELQSAPENKGTGQHGHMHGSRNNHPQNTSDSQKECTDGNKENCGAATSLLNNSS
notes: Predicted molecular weight 24,721 daltons; also called rPfMSP2; rPfMSP2 (3D7); not shown: His6, N-terminal, kept
binding result: binds
